PMC8131915 (The Journal of Biological Chemistry, 2021)

Legend:
[1] = biological target: transcription-associated protein 1 (Tra1) (S. cerevisiae (endogenous), UniProt P38811 1-3744); experiment: cross-linking
[2] = biological target: SAGA complex (Spt7-TAP purified) (Saccharomyces cerevisiae, UniProt P35177;P38915;P38811;P50875;P06844;Q12060;P38129;P53040;Q05027;Q12030;Q03761;Q03 …); experiment: fluorescence polarization
[3] = biological target: SAGA complex (Spt7-TAP purified);TBP (Saccharomyces cerevisiae;Saccharomyces …, UniProt P35177;P38915;P38811;P50875;P06844;Q12060;P38129;P53040;Q05027;Q12030;Q03761;Q03 …, |); experiment: EMSA

Chain of transcription-associated protein 1 (Tra1) (P38811 whole entry): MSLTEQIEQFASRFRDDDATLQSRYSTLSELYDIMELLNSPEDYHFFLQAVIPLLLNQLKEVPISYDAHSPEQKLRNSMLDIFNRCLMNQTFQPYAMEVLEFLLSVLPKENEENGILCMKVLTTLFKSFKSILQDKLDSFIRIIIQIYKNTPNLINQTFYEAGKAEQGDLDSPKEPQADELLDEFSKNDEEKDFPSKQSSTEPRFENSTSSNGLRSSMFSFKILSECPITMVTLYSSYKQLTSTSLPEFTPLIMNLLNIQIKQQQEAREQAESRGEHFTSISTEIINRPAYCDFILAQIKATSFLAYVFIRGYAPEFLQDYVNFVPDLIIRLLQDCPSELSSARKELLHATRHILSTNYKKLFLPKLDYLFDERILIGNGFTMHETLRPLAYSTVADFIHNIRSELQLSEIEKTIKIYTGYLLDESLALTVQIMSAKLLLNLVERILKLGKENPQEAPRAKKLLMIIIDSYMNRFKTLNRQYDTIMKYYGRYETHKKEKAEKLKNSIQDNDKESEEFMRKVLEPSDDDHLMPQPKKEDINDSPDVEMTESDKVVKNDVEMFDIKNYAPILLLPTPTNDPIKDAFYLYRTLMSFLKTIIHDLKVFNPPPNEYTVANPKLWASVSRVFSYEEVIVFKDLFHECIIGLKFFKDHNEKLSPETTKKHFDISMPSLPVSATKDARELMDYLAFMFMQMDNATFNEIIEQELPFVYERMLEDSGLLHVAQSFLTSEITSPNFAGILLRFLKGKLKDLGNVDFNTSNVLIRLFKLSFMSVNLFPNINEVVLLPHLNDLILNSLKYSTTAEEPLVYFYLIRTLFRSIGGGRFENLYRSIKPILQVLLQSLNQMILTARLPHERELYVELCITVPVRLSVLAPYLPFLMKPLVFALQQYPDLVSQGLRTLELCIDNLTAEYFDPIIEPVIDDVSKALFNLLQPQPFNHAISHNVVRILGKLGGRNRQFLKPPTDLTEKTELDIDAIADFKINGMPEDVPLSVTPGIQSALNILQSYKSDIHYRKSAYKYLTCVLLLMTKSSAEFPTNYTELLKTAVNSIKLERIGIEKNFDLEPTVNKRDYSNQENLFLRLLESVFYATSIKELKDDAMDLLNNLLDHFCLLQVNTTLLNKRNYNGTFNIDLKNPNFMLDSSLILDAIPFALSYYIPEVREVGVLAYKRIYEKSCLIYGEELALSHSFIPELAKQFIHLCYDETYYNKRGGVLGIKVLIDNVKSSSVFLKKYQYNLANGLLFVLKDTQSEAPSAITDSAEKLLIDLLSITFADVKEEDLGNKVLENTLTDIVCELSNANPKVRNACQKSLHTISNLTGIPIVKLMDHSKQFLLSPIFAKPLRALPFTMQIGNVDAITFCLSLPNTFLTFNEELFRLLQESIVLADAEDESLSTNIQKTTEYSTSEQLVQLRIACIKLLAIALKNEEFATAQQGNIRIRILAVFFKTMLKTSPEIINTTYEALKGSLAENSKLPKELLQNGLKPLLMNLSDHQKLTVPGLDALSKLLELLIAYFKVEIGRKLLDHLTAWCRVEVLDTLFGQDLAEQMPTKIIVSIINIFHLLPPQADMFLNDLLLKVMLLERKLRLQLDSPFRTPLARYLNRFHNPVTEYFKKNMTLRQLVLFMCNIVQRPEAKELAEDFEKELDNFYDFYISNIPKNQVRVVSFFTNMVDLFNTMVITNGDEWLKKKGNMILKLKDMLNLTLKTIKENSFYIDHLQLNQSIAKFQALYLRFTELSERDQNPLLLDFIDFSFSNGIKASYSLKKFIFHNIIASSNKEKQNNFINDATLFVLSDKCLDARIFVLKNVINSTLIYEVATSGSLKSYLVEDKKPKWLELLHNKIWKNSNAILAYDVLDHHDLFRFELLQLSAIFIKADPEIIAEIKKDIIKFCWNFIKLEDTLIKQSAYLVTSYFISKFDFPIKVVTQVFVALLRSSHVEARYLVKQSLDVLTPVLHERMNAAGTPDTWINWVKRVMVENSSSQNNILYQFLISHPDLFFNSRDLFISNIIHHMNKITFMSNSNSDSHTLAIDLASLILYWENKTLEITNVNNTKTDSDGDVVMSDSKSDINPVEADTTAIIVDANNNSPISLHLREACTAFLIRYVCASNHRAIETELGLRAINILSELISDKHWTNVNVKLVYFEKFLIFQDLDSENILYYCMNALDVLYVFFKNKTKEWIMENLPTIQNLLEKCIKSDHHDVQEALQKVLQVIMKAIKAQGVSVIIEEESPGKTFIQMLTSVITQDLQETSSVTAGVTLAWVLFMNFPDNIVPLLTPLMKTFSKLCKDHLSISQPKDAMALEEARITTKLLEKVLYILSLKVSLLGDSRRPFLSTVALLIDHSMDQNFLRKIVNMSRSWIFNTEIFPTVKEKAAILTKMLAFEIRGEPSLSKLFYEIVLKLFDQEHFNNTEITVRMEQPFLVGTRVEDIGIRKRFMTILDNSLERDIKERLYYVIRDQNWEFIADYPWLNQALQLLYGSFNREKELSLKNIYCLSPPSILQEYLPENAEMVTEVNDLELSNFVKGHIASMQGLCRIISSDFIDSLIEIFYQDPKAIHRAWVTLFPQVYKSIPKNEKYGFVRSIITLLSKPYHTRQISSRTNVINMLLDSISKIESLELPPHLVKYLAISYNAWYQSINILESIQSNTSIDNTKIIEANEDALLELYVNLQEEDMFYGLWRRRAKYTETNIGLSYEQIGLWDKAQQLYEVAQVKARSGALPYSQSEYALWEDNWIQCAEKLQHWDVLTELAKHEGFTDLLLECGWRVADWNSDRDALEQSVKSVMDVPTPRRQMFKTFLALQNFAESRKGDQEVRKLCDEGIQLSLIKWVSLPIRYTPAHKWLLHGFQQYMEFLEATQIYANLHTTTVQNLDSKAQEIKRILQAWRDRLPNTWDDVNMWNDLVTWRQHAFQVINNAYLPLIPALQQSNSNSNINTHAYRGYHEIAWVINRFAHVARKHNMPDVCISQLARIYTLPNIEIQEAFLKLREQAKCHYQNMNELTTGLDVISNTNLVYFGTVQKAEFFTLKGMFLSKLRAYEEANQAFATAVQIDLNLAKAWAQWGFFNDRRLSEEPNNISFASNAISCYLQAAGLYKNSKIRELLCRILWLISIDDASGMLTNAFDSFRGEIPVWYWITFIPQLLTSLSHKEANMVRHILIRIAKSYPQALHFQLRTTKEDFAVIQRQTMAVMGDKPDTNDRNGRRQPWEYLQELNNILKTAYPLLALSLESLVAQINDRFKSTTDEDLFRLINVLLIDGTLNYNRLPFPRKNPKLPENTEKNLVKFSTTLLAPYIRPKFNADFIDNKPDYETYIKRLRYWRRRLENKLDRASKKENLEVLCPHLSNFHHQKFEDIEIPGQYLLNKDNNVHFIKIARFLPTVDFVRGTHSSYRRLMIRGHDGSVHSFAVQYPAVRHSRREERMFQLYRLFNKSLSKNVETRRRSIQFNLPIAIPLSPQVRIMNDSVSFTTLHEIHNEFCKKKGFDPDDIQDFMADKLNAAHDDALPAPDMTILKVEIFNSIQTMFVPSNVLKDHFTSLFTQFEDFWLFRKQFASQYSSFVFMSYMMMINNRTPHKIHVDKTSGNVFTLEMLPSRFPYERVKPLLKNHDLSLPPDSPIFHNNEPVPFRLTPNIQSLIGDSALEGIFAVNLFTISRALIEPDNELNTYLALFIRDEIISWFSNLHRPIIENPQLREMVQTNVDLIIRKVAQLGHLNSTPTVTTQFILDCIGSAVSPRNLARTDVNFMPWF

Binder	binding result [1]	also measured
75-mer ssDNA, HIS4 promoter (ssDNA) DNA: GCAGGAGGACGTAGGGTAGGACTATGAACAGTAGTATACTGTGTATATAATAGATATGGAACGTTATATTCACCT		Kd [2]: 15 ± 11 nM
75-mer dsDNA, HIS4 TATA-box promoter (dsDNA) DNA 1: GCAGGAGGACGTAGGGTAGGACTATGAACAGTAGTATACTGTGTATATAATAGATATGGAACGTTATATTCACCT DNA 2: AGGTGAATATAACGTTCCATATCTATTATATACACAGTATACTACTGTTCATAGTCCTACCCTACGTCCTCCTGC		binding result [3]: binds

Now from value to binder, other results behind:

binding result [1]	Binder	also measured
binds	Taf12 (natural protein, S. cerevisiae (endogenous), UniProt Q03761 1-539, looked up) MSSNPENSGVNANNNTGTGNADAITGAQQNMVLQPRQLQEMAAKFRTLLTEARNVGETTPRGKELMFQAAKIKQVYDALTLNRRRQQAAQAYNNTSNSNSSNPASIPTENVPNSSQQQQQQQQQTRNNSNKFSNMIKQVLTPEENQEYEKLWQNFQVRHTSIKEKETYLKQNIDRLEQEINKQTDEGPKQQLQEKKIELLNDWKVLKIEYTKLFNNYQNSKKTFYVECARHNPALHKFLQESTQQQRVQQQRVQQQQQQQQQQQQQQQQQQQQQQQRQGQNQRKISSSNSTEIPSVTGPDALKSQQQQQNTITATNNPRGNVNTSQTEQSKAKVTNVNATASMLNNISSSKSAIFKQTEPAIPISENISTKTPAPVAYRSNRPTITGGSAMNASALNTPATTKLPPYEMDTQRVMSKRKLRELVKTVGIDEGDGETVIDGDVEELLLDLADDFVTNVTAFSCRLAKHRKSDNLEARDIQLHLERNWNIRIPGYSADEIRSTRKWNPSQNYNQKLQSITSDKVAAAKNNGNNVASLNTKK	
binds	Ada1 (natural protein, S. cerevisiae (endogenous), UniProt Q12060 1-488, looked up) MSAIQSPAPKPLQPTYPAASPASTNAYMKPGLIGSPAVSNHTEPNNGNNETAEPQGPNQRIDLGAMIEELTSLLGKESWTKYAQIISLFILGKLSRKELSNELELVFSPSAASLEKSNTNHHHSLVRLHNQLLLGIFANSLRENPLGRNGNESSWGFGNGSNNPNNKLKRINKHNSQIEVYKKIVMSLPLNDRNRLKMITKEAGKRGFIFCSVFQARLNNIPKIPIVTNPESLKRVKSNNLKTPLEWSQDIMNGFNVPLASESHSLPDTDSFYLRMVGIAREHGLVGTVDARCVELISLALDQYLKNIIEFTIDTVRYRRKKYSDYYDLNESGLYKSVSEMAADKRDAKIKQLDDDKNEDECADEAKSINNGNNSSKDDIGDISMSSITKAGEAVNEELHENRTISLTNEDIYDSLSIFPNLVEPSGSYYALTNLGLVNDDELVDMKSNIDDLPDFLNEKPTFTPLDERNVGTRHELNWLIKGILTED	
